# Assay results as given in US20170129954A1 (PROTHENA BIOSCIENCES, published 2017).
# T1: human MCAM C272A mutant (shotgun mutagenesis library, on BHK cells) (human, UniProt P43121 24-646)
# T1 chain: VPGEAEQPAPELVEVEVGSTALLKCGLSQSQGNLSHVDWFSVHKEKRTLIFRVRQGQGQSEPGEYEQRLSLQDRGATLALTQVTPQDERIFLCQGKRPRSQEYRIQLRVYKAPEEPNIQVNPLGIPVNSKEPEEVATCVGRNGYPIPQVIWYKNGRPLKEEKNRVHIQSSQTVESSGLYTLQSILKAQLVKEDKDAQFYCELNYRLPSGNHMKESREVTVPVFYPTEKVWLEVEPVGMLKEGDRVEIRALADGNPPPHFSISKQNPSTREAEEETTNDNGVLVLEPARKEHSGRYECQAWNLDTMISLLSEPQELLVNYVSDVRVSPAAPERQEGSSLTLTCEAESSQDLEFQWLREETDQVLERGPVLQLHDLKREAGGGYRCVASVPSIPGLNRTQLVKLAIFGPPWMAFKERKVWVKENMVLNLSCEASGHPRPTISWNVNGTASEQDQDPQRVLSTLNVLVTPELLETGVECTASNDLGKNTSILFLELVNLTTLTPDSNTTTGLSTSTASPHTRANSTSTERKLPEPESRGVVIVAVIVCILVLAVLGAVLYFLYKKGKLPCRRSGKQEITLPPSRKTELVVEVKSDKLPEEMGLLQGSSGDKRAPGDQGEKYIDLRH
# T2: human MCAM Y318A mutant (shotgun mutagenesis library, on BHK cells) (human, UniProt P43121 24-646)
# T2 chain: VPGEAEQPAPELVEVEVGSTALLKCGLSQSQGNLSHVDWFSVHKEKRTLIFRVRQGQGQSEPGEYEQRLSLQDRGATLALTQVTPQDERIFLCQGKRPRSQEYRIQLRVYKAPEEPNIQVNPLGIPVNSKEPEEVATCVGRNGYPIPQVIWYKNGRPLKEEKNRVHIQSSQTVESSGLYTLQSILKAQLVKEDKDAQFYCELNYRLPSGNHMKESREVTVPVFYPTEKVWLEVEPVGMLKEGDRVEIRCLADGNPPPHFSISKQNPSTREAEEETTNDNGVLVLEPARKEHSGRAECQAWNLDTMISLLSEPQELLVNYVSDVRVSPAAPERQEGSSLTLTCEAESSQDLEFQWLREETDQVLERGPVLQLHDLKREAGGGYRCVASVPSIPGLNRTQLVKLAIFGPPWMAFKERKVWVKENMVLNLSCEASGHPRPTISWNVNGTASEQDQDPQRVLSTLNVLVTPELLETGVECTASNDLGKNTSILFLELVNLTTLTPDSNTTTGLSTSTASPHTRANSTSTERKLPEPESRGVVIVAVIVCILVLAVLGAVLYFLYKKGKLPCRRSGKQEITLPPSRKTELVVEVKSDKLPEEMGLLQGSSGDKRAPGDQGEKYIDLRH
# T3: human MCAM C320A mutant (shotgun mutagenesis library, on BHK cells) (human, UniProt P43121 24-646)
# T3 chain: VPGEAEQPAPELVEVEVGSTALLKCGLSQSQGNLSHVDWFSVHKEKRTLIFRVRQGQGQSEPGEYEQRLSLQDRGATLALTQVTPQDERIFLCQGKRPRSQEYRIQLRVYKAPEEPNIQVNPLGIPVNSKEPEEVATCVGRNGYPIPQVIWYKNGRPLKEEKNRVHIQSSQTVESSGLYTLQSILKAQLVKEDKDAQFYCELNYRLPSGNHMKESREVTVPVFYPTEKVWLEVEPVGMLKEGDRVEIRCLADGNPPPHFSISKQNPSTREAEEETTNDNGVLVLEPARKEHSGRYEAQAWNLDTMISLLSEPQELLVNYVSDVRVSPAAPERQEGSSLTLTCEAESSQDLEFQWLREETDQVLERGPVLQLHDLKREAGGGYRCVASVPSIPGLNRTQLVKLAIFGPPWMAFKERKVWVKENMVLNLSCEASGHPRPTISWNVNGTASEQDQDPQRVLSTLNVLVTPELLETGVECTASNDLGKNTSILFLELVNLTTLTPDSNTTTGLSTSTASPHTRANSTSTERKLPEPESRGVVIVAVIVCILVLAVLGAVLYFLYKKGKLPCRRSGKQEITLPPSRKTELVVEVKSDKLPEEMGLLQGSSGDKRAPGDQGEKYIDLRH
# T4: human MCAM V340A mutant (shotgun mutagenesis library, on BHK cells) (human, UniProt P43121 24-646)
# T4 chain: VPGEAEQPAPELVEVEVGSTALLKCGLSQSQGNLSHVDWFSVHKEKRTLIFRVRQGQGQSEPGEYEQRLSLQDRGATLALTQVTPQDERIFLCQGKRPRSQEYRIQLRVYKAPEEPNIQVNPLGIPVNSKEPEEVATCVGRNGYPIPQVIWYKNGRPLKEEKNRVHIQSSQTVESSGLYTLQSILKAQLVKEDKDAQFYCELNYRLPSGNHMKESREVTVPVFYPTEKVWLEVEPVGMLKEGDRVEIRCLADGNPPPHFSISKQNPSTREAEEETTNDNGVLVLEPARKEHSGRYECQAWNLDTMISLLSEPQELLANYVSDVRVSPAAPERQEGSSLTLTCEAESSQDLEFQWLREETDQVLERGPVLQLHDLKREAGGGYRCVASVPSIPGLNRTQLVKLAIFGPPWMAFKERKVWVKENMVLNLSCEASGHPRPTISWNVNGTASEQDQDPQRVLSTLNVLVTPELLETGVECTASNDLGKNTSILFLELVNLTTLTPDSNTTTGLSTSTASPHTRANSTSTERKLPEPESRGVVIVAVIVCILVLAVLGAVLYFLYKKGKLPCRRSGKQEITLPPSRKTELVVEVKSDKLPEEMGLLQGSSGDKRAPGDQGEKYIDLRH
# Tests used:
# Assay in all cases: shotgun mutagenesis library, immunofluorescence on BHK cells, triplicate, background-subtracted and normalized to WT
# [1] = target: T1, human MCAM C272A mutant (shotgun …)
# Description: (§1) The mutation library was assayed for surface expression (mouse sera binding) and monoclonal antibody binding, in triplicate. Each raw data point was background-subtracted and normalized to the wild type MCAM reactivity values. The mean monoclonal antibody binding value for each clone is plotted as a function of its mean surface expression value (FIG. 1, gray diamonds). Thresholds of <30% monoclonal antibody reactivity and >50% mouse sera binding were applied to identify clones (FIG. 1, black diamonds) that were negative for monoclonal antibody binding but positive for surface expression.
# (§2) Residues involved in antibody binding were identified as those that were negative for monoclonal antibody binding (<30% WT) but positive for surface expression (>50% WT) (Table 4). The mean reactivity (and standard deviation) were determined for each critical residue.
# [2] = target: T2, human MCAM Y318A mutant (shotgun …)
# Description: as §1, §2
# [3] = target: T3, human MCAM C320A mutant (shotgun …)
# Description: as §1, §2
# [4] = target: T4, human MCAM V340A mutant (shotgun …)
# Description: as §1, §2
binder,measurement,setting,value
"mouse anti-human MCAM monoclonal antibody clone 1749.1.3 (antibody, V domains shown, Mouse hybridoma monoclonal antibody; also called m1749) VH: DVKLVESGGDLVKPGGSLKLSCAASGFTFSSYIMSWVRQTPEKRLEWVATISSGGSSTYYPDSVKGRFTISRDNAKNTLYLQMSSLKSEDTAMYYCTRDDDYDVKVFAYWGQGTLVTVSA VL: DIVMSQSPSSLAVSAGEKVTMNCKSSRSLLNSRIRKNYLAWYQQKPGQSPKLLIYWASTRESGVPDRFTGSGSGTDFTLTISSVQAEDLAVYYCKQSYNLLTFGAGTKLELK","mean reactivity (% of wild type MCAM), standard deviation in brackets",[1],7.6 % of WT
same,"mean reactivity (% of wild type MCAM), standard deviation in brackets",[2],7.1 % of WT
same,"mean reactivity (% of wild type MCAM), standard deviation in brackets",[3],9.3 % of WT
same,"mean reactivity (% of wild type MCAM), standard deviation in brackets",[4],8.7 % of WT
